This is an account of results in patent publication US20140295512A1, “Ketol-Acid Reductoisomerases With Improved Performance Properties” (CALIFORNIA INSTITUTE OF TECHNOLOGY, priority 2011, published 2014).

Changes are numbered by the printed parent chain. Names and notes keep the numbering of the source. Where two headings read alike, the source gives them in different places. Bounds are passed on as bounds.

A short description of series [1]: KARI assay of purified S. exigua KARI and variants with NADH (Examples 6-9). To be noted: for U/mg NADH (specific activity): cofactor NADH; for Km: read-out: Km for cofactor NADH; for Ratio NADH/NADPH (U/mg): specific activity ratio. In kind it is biochemical. Here is the method: (§1) S. exigua KARI activity or activities of its variants were assayed kinetically by monitoring the decrease in NADPH or NADH concentration by measuring the change in absorbance at 340 nm. An assay buffer was prepared containing 100 mM potassium phosphate pH 7.0, 1 mM DTT, 2.5 mM (S)-2-acetolactate, and 10 mM MgCl2 (final concentrations in the 1-mL assay, accounting for dilution with enzyme and cofactor). Fifty μL purified enzyme and 930 μL of the assay buffer were placed into a 1-mL cuvette. The reaction was initiated by addition of 20 μL NADPH or NADH (200 μM final concentration) for a general activity assay. Michaelis-Menten constants of the cofactors were determined with varying concentrations of NADPH (200-12 μM final) or NADH (200-6 μM final).

A short description of series [2]: KARI assay of purified S. exigua KARI and variants with NADPH (Examples 6-9). To be noted: for U/mg NADPH (specific activity): cofactor NADPH; for Km: read-out: Km for cofactor NADPH. In kind it is biochemical. Here is the method: as §1

B1: Se1_KARI^1AA10: S. exigua KARI variant S61C, S63D, I95T (protein, UniProt D0WGK0 1-342, looked up, variant S61C S63D I95T)
Ketol-acid reductoisomerase …: MSVKTKEKEMAVTILYEQDVDPKVIQGLKVGIIGYGSQGHAHALNLMDSGVDVRVGLREGCSDWKTAEEAGLKVTDMDTAAEEADVIMVLVPDETQPKVYQEHIAAHLKAGNTLAFAHGFNIHYGYIVPPEDVNVIMCAPKGPGHIVRRQFTEGSGVPDLACVQQDATGNAWDIVLSYCWGVGGARSGIIKATFAEETEEDLFGEQAVLCGGLVELVKAGFETLTEAGYPPELAYFECYHEMKMIVDLMYESGIHFMNYSISNTAEYGEYYAGPKVINEQSREAMKEILKRIQDGSFAQEFVDDCNNGHKRLLEQREAINTHPIETTGAQIRSMFSWIKKED
By Km is commonly meant the concentration of substrate that gives half-maximal velocity. As for B1, in series [1], the “NADH KM value, fold increased versus wild-type” value was determined as 1.3 fold; the “kcat NADH” value was 0.8 s⁻¹; the “kcat with NADH, fold increase versus wild-type” value stood at 2 fold; the “kcat/Km ratio NADH/NADPH (cofactor specificity)” value (“kcat/Km ratio NADH/NADPH” below) was determined as 7.1. Besides, in series [1], the “U/mg NADH (specific activity)” value was 0.32 U/mg, the Michaelis constant (Km) was determined as 62 µM and the “Ratio NADH/NADPH (U/mg)” value is 1.2. Also, in series [1] (listed as 1AA10), the “U/mg NADH (specific activity)” value amounted to 0.8 U/mg. Moreover, in series [1] (listed as Se1_KARI^1AA10-his6), the “kcat/Km ratio NADH/NADPH” value was 7. In series [2], the “NADPH KM value, fold increased versus wild-type/parent” value is reported as “at least 367 fold”; the “kcat NADPH” value worked out at 0.67 s⁻¹; the “kcat with NADPH, fold decreased versus wild-type” value is 1.2 fold; the “U/mg NADPH (specific activity)” value worked out at 0.27 U/mg. In addition, in series [2], the Km came to 367 µM. Further, the “NADPH KM value, fold increased versus wild-type/parent” value in series [2] (listed as Se1_KARI^1AA10-his6) is recorded as over 367 fold.

B2: Se1_NKR^2E8-his6: S. exigua KARI variant R58P, S61C, S62P, S63D, I95T (protein, UniProt D0WGK0 1-342, looked up, variant R58P S61C S62P S63D I95T)
Ketol-acid reductoisomerase …: B1 Ketol-acid reductoisomerase … with R58P, S62P
modifications: His6 tag
notes: S. exigua KARI variant R58P, S61C, S62P, S63D, I95T
In the case of B2, in series [1], the “NADH KM value, fold increased versus wild-type” value is given as 2 fold; the “kcat NADH” value stood at 0.4 s⁻¹; the “kcat/Km ratio NADH/NADPH” value is 46; the “U/mg NADH (specific activity)” value is recorded as 0.16 U/mg. Also, in series [1], the Km was 87 µM and the “Ratio NADH/NADPH (U/mg)” value was determined as 3.6. For the same molecule, in series [2], the “NADPH-dependent activity (in words)” value was “virtually abolished”, the “kcat NADPH” value came out at 0.1 s⁻¹, the “U/mg NADPH (specific activity)” value is listed as 0.044 U/mg and the Michaelis constant (Km) was over 1000 µM.

B3: Se1_KARI^HF2-his6: S. exigua KARI variant S61C (protein, UniProt D0WGK0 1-342, looked up, variant S61C)
Ketol-acid reductoisomerase …: B1 Ketol-acid reductoisomerase … with D63S, T95I
modifications: His6 tag
notes: S. exigua KARI variant S61C
As for B3, in series [1], the “kcat NADH” value was determined as 0.45 s⁻¹, the “U/mg NADH (specific activity)” value is reported as 0.18 U/mg, the Km stood at 43.8 µM and the “Ratio NADH/NADPH (U/mg)” value was found to be 0.78. Moreover, in series [2], the “kcat NADPH” value was 0.57 s⁻¹ and the “U/mg NADPH (specific activity)” value amounted to 0.23 U/mg.

B4: S631: Slackia KARI variant with residue S63 mutated (printed S631, probably S63I) (protein, UniProt D0WGK0 1-342, looked up, variant S63I)
Ketol-acid reductoisomerase …: B1 Ketol-acid reductoisomerase … with C61S, D63I, T95I
On to B4, for which, in series [1], the “Ratio NADH/NADPH (U/mg)” value was 4.

B5: S63R: Slackia KARI variant with residue S63 mutated to R (protein, UniProt D0WGK0 1-342, looked up, variant S63R)
Ketol-acid reductoisomerase …: B1 Ketol-acid reductoisomerase … with C61S, D63R, T95I
Regarding B5, the “Ratio NADH/NADPH (U/mg)” value in series [1] came out at 3.7.

B6: Se1_NKR^S61DS63D: S. exigua KARI double aspartic acid variant S61D, S63D (protein, UniProt D0WGK0 1-342, looked up, variant S61D S63D)
Ketol-acid reductoisomerase …: B1 Ketol-acid reductoisomerase … with C61D, T95I
modifications: His6 tag
notes: S. exigua KARI double aspartic acid variant S61D, S63D
On to B6, for which, in series [1], the “NADH KM value, fold increased versus wild-type” value was 2.5 fold; the “kcat NADH” value came to 1 ± 0.13 s⁻¹; the “kcat in presence of NADH, fold higher than in presence of NADPH” value worked out at 10 fold; the “kcat/Km ratio NADH/NADPH” value is reported as 78. Moreover, in series [1], the “U/mg NADH (specific activity)” value was found to be 0.4 ± 0.05 U/mg, the Km turned out to be 113 ± 4 µM and the “Ratio NADH/NADPH (U/mg)” value is 9.5. Further, the “kcat NADH” value in series [1] (listed as S61D/S63D) was found to be 1 s⁻¹. For the same molecule, in series [1] (listed as Se1_NKR^DD-his6), the “kcat NADH” value came out at 1 s⁻¹ and the “kcat/Km ratio NADH/NADPH” value was found to be 76. In series [2], the “NADPH KM value, fold increased versus wild-type/parent” value is reported as “more than 800 fold”; the “kcat NADPH” value worked out at 0.1 ± 0.01 s⁻¹; the “U/mg NADPH (specific activity)” value is 0.042 ± 0.005 U/mg; the Km was 880 ± 500 µM. In series [2] (listed as Se1_NKR^DD-his6), the “U/mg NADPH (specific activity)” value came to 0.04 ± 0.005 U/mg and the “kcat NADPH” value was 0.1 s⁻¹. The “kcat NADPH” value in series [2] (listed as S61D/S63D) came out at 0.1 s⁻¹.

B7: S63H: Slackia KARI variant with residue S63 mutated to H (protein, UniProt D0WGK0 1-342, looked up, variant S63H)
Ketol-acid reductoisomerase …: B1 Ketol-acid reductoisomerase … with C61S, D63H, T95I
With B7, the “Ratio NADH/NADPH (U/mg)” value in series [1] was 4.

B8: Se1_KARI^EE1-his6: S. exigua KARI variant L57R (protein, UniProt D0WGK0 1-342, looked up, variant L57R)
Ketol-acid reductoisomerase …: B1 Ketol-acid reductoisomerase … with L57R, C61S, D63S, T95I
modifications: His6 tag
notes: S. exigua KARI variant L57R
For B8, in series [1], the “U/mg NADH (specific activity)” value came to 0.06 U/mg and the “Ratio NADH/NADPH (U/mg)” value is given as 1.58. For the same molecule, the “U/mg NADPH (specific activity)” value in series [2] is on record as 0.04 U/mg.

B9: Se1_KARI^GE11-his6: S. exigua KARI variant G60V (protein, UniProt D0WGK0 1-342, looked up, variant G60V)
Ketol-acid reductoisomerase …: B1 Ketol-acid reductoisomerase … with G60V, C61S, D63S, T95I
modifications: His6 tag
notes: S. exigua KARI variant G60V
On to B9, for which, in series [1], the “kcat NADH” value worked out at 1 s⁻¹, the “U/mg NADH (specific activity)” value turned out to be 0.4 U/mg and the “Ratio NADH/NADPH (U/mg)” value is 0.48. In series [1] (listed as Se1_KARI^GE11), the “U/mg NADH (specific activity)” value was determined as 0.40 U/mg and the “Ratio NADH/NADPH (U/mg)” value was 0.50. Further, in series [2], the “kcat NADPH” value turned out to be 2 s⁻¹ and the “U/mg NADPH (specific activity)” value is given as 0.8 U/mg.

B10: Se1_NKR^10C2-his6: S. exigua KARI variant R58P, S61C, S62A, S63D, I95T (protein, UniProt D0WGK0 1-342, looked up, variant R58P S61C S62A S63D I95T)
Ketol-acid reductoisomerase …: B1 Ketol-acid reductoisomerase … with R58P, S62A
modifications: His6 tag
notes: S. exigua KARI variant R58P, S61C, S62A, S63D, I95T
Consider B10, for which, in series [1], the “kcat NADH” value amounted to 0.27 s⁻¹, the “kcat/Km ratio NADH/NADPH” value was determined as 14, the “U/mg NADH (specific activity)” value was determined as 0.11 U/mg and the Michaelis-Menten constant (Km) was found to be 250 µM. In addition, the “Ratio NADH/NADPH (U/mg)” value in series [1] is on record as 3.4. For the same molecule, in series [2], the “NADPH-dependent activity (in words)” value is recorded as “virtually abolished”, the “kcat NADPH” value was 0.08 s⁻¹, the “U/mg NADPH (specific activity)” value amounted to 0.032 U/mg and the Michaelis-Menten constant (Km) is over 1000 µM.

B11: S63E: Slackia KARI variant with residue S63 mutated to E (protein, UniProt D0WGK0 1-342, looked up, variant S63E)
Ketol-acid reductoisomerase …: B1 Ketol-acid reductoisomerase … with C61S, D63E, T95I
Take B11: in series [1], the “Ratio NADH/NADPH (U/mg)” value is given as 9.

B12: S63M: Slackia KARI variant with residue S63 mutated to M (protein, UniProt D0WGK0 1-342, looked up, variant S63M)
Ketol-acid reductoisomerase …: B1 Ketol-acid reductoisomerase … with C61S, D63M, T95I
On to B12, for which the “Ratio NADH/NADPH (U/mg)” value in series [1] stood at 4.
